Test results taken from patent EP2261242A1, “Aspartate-N-acetyltransferase enzyme, diagnostic method and therapeutic method” (UNIVERSITE CATHOLIQUE DE LOUVAIN, priority 2009, dated 2010).
Where two headings read alike, the source gives them in different places.

What was measured:
[1] = target: T1, mouse NAT8L (Mus musculus, UniProt Q3UGX3); assay: Radiochemical Asp-NAT activity assay on washed membrane pellets of HEK cells transfected with untagged mouse NAT8L; assay type: biochemical
T1 construct: expressed in transfected cells; host or cells: HEK 293T cells (pCMV5 vector); washed 16 000 x g membrane pellets of frozen-thawed extracts
T1 sequence (Q3UGX3 1-299): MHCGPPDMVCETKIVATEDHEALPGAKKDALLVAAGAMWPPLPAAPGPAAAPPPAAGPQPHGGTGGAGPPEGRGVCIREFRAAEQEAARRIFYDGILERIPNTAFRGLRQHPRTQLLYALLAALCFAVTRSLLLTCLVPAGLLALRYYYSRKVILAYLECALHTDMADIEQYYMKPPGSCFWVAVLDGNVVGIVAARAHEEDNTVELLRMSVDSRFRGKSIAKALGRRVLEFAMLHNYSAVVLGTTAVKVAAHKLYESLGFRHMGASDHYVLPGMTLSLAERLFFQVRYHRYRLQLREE
Description: After 20-40 min at 30°C, the reaction was arrested by a 5-min incubation at 80°C and 1 ml of 5 mM Hepes, pH 7.1 was added. The sample was centrifuged and the supernatant was applied on a 1-ml Dowex AG1X8 column (Cl^- form, 100-200 mesh, from Acros Organics) prepared in a Pasteur capillary pipette. […] Radioactivity was counted in the presence of Ultima Gold™ (Perkin Elmer) in a liquid scintillation counter. The kinetic studies shown in Figure 3 were performed using washed pellets, obtained by centrifuging extracts for 20 min at 16 000 x g, resuspending them in the initial volume of extraction buffer, recentrifugation and resuspension in the original volume of extraction buffer.
The Asp-NAT activity was further characterized in extracts of cells expressing wild-type mouse NAT8L. […] The kinetic studies were therefore performed on washed pellets, to eliminate soluble, potentially interfering enzymes. […] The KM values amounted to ≈ 9 and 13 µM in the presence of 0.5 and 1 mM CHAPS, respectively.

[2] = substrate: N[C@@H](CC(=O)O)C(=O)O; assay: purified protein, by the assay type; conditions: other: substrate saturation curve; same in absence and presence of 0.5 mM CHAPS; pH 7.1
[3] = substrate: NC(CCC(=O)O)C(=O)O; assay: purified protein, by the assay type; conditions: other: glutamate as substrate (not shown); pH 7.1
[4] = substrate: CC(=O)SCCNC(=O)CCNC(=O)[C@H](O)C(C)(C)COP(=O)(O)OP(=O)(O)OC[C@H]1O[C@@H](n2cnc3c(N)ncnc32)[C@H](O)[C@@H]1OP(=O)(O)O; assay: purified protein, by the assay type; conditions: other: 20 µM aspartate, pH 7.1

N[C@@H](CCC(=O)O)C(=O)O [glutamate]
Ki [1]: ~6 mM

C[C@H](CCC(=O)NCCC[N+](C)(C)CCCS(=O)(=O)[O-])[C@H]1CC[C@H]2[C@@H]3[C@H](O)C[C@@H]4C[C@H](O)CC[C@]4(C)[C@H]3C[C@H](O)[C@]12C [CHAPS]
increase of Vmax ([1]; 0.5 mM CHAPS, saturation curve for aspartate): ≈ 30%

CC(=O)N[C@@H](CC(=O)O)C(=O)O [NAA, N-acetylaspartate]
Ki ([1]; inhibition of incorporation of [^14C]-aspartate into NAA, competitive with respect to aspartate, 200 µM acetyl-CoA, 0.5 mM CHAPS, variable aspartate): 0.56 mM

B1: mouse NAT8L (Mus musculus) (protein)
chain: MHCGPPDMVCETKIVATEDHEALPGAKKDALLVAAGAMWPPLPAAPGPAAAPPPAAGPQPHGGTGGAGPPEGRGVCIREFRAAEQEAARRIFYDGILERIPNTAFRGLRQHPRTQLLYALLAALCFAVTRSLLLTCLVPAGLLALRYYYSRKVILAYLECALHTDMADIEQYYMKPPGSCFWVAVLDGNVVGIVAARAHEEDNTVELLRMSVDSRFRGKSIAKALGRRVLEFAMLHNYSAVVLGTTAVKVAAHKLYESLGFRHMGASDHYVLPGMTLSLAERLFFQVRYHRYRLQLREE
Km [2]: 90 µM | Km [3]: 5 mM | Km ([4]; in the presence of 0.5 mM CHAPS): 9 µM | Km ([4]; in the presence of 1 mM CHAPS): 13 µM
